In patent US20250011379A1 (VERTEX PHARMACEUTICALS, published 2025):

Target: soluble human C3b (human, UniProt P01024 23-1663, limits assumed)
Test: cell-based or functional assay

soluble human C3b, sequence (P01024 23-1663 limits assumed): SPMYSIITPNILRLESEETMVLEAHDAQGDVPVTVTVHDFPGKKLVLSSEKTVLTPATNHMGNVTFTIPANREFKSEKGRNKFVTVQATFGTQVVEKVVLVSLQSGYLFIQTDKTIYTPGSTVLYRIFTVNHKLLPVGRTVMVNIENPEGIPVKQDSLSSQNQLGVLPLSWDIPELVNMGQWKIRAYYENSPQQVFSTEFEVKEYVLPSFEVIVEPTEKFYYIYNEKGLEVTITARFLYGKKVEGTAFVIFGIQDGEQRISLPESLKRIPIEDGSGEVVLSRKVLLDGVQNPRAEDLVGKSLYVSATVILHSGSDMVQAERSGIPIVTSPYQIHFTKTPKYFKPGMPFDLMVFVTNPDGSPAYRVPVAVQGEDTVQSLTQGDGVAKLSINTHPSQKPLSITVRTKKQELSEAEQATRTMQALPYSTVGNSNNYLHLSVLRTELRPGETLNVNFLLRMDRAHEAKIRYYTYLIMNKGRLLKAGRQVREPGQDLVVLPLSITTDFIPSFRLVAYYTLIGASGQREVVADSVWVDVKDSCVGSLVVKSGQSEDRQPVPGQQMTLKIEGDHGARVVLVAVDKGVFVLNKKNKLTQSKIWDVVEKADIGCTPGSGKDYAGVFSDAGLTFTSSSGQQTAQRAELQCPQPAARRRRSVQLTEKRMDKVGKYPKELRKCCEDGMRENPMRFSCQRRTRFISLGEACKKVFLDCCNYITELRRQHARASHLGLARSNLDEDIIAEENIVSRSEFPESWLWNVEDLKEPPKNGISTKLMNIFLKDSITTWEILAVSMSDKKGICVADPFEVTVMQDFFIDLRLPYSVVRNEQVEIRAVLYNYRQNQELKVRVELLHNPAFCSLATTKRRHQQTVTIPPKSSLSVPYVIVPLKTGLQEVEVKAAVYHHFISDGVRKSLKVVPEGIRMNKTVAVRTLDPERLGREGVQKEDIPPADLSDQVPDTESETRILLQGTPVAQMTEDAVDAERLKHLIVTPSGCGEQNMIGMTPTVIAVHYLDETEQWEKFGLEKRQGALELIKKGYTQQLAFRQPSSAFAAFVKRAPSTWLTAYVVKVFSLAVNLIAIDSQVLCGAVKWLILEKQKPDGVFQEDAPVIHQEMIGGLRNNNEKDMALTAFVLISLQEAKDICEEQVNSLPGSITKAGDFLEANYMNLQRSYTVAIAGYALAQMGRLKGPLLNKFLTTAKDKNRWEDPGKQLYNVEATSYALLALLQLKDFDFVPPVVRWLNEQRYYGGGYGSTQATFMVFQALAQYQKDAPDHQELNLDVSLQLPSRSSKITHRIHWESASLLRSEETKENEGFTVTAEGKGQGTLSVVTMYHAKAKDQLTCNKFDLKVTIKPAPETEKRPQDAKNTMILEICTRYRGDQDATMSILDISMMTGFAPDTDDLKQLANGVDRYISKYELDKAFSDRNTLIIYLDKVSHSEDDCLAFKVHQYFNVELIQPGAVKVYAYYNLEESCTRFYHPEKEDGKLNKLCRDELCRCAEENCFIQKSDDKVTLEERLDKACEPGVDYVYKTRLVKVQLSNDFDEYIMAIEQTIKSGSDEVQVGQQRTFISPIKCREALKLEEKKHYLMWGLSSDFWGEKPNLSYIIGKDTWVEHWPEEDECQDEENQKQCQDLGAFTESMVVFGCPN

B1: Const. No. 94: hCFI-PD (wild type plasma-derived human CFI) (enzyme)
chain: KVTYTSQEDLVEKKCLAKKYTHLSCDKVFCQPWQRCIEGTCVCKLPYQCPKNGTAVCATNRRSFPTYCQQKSLECLHPGTKFLNNGTCTAEGKFSVSLKHGNTDSEGIVEVKLVDQDKTMFICKSSWSMREANVACLDLGFQQGADTQRRFKLSDLSINSTECLHVHCRGLETSLAECTFTKRRTMGYQDFADVVCYTQKADSPMDDFFQCVNGKYISQMKACDGINDCGDQSDELCCKACQGKGFHCKSGVCIPSQYQCNGEVDCITGEDEVGCAGFASVTQEETEILTADMDAERRRIKSLLPKLSCGVKNRMHIRRKRIVGGKRAQLGDLPWQVAIKDASGITCGGIYIGGCWILTAAHCLRASKTHRYQIWTTVVDWIHPDLKRIVIEYVDRIIFHENYNAGTYQNDIALIEMKKDGNKKDCELPRSIPACVPWSPYLFQPNDTCIVSGWGREKDNERVFSLQWGEVKLISNCSKFYGNRFYEKEMECAGTYDGSIDACKGDSGGPLVCMDANNVTYVWGVVSWGENCGKPEFPGVYTKVANYFDWISYHVGRPFISQYNV
  iC3b EC50: 50.1 nM

B2: Const. No. 96: hCFI (wt hCFI, no signal sequence, no HSA) (enzyme)
chain: KVTYTSQEDLVEKKCLAKKYTHLSCDKVFCQPWQRCIEGTCVCKLPYQCPKNGTAVCATNRRSFPTYCQQKSLECLHPGTKFLNNGTCTAEGKFSVSLKHGNTDSEGIVEVKLVDQDKTMFICKSSWSMREANVACLDLGFQQGADTQRRFKLSDLSINSTECLHVHCRGLETSLAECTFTKRRTMGYQDFADVVCYTQKADSPMDDFFQCVNGKYISQMKACDGINDCGDQSDELCCKACQGKGFHCKSGVCIPSQYQCNGEVDCITGEDEVGCAGFASVTQEETEILTADMDAERRRIKSLLPKLSCGVKNRMHIRRKRIVGGKRAQLGDLPWQVAIKDASGITCGGIYIGGCWILTAAHCLRASKTHRYQIWTTVVDWIHPDLKRIVIEYVDRIIFHENYNAGTYQNDIALIEMKKDGNKKDCELPRSIPACVPWSPYLFQPNDTCIVSGWGREKDNERVFSLQWGEVKLISNCSKFYGNRFYEKEMECAGTYDGSIDACKGDSGGPLVCMDANNVTYVWGVVSWGENCGKPEFPGVYTKVANYFDWISYHVGRPFISQYNV
  iC3b EC50: 62.4 nM
